Results published in US20190241662A1 (ADAGENE, published 2019).

Legend:
[1] = target: T1, human CD95 on HEK293F cells (human, UniProt P25445 26-335); test: flow cytometry, transfected HEK293F cells [Cont.]
T1 construct: whole, on cells
T1 sequence (looked up): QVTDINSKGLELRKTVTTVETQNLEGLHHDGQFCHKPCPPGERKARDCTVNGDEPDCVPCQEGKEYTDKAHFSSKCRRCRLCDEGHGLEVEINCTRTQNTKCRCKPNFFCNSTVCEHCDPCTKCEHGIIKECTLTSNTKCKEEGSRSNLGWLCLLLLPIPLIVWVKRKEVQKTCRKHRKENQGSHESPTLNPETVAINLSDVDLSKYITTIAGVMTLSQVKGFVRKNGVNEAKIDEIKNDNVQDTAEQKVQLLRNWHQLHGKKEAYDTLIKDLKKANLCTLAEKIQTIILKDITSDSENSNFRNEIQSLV
Experimental: (§1) Antibody selectivity was next examined. Human CTLA4, PD1, LAG3, Tim3, B7H3, CD95, TNFR1, OX40, CD40, PD-L1, BLTA, VISTA, PDL2, ICOS and B7H4 were transiently overexpressed on the surface of HEK293F cells. Transfected cells were washed in pre-chilled 1×PBSA buffer (1.76 mM KH2PO4, 10.14 mM Na2HPO4.12H2O, 2.68 mM KCl, 136.89 mM NaCl and 1% BSA), then incubated with 100 nM test antibodies for 1 hour on ice. Cells were washed once with staining buffer, and Alexa Fluor® 647 conjugated mouse anti-human FC antibodies were added and incubated for 30 minutes on ice, protected from light. Samples were washed once with staining buffer prior to analysis by flow cytometry.

[2] = target: T2, human OX40 on HEK293F cells (human, UniProt P43489 29-277); test: flow cytometry, transfected HEK293F cells [Cont.]
T2 construct: whole, on cells
T2 sequence (looked up): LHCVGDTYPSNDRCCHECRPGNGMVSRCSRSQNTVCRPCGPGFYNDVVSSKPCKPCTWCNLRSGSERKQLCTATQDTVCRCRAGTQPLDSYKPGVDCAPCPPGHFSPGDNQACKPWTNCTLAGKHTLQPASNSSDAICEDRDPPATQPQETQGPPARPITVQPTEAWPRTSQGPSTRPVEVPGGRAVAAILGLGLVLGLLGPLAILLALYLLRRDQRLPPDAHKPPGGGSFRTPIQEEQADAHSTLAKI
Experimental: as §1

[3] = target: T3, human TNFR1 on HEK293F cells (human, UniProt P19438 30-455); test: flow cytometry, transfected HEK293F cells [Cont.]
T3 construct: whole, on cells; also called CD120a
T3 sequence (looked up): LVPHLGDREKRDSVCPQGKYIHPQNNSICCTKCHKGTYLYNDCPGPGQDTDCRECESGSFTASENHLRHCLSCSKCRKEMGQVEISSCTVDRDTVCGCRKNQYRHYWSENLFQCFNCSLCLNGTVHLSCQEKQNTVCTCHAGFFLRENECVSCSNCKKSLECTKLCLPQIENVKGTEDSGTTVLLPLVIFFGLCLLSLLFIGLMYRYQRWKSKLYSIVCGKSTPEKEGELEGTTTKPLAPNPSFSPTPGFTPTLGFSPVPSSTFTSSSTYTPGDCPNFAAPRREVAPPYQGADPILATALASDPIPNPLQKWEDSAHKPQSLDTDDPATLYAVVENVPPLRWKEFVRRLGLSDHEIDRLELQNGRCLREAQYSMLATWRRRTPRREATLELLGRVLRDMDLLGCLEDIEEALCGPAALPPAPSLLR
Experimental: as §1

[4] = target: T4, biotinylated rat CTLA4 protein fused with human FC (rat, UniProt Q62859 36-161, Biotinylated; sites not stated); test: BLI (ForteBio), biotinylated rat CTLA4-Fc on SA sensor, IgG 15 ug/mL
T4 sequence: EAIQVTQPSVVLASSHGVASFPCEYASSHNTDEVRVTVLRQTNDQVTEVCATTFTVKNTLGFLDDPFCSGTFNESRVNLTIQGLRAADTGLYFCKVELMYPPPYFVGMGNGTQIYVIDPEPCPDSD
Excerpt: The association and dissociation curves were fitted to a 1:1 Langmuir binding model using ForteBio Data Analysis 7.1 (Pall, USA) according to the manufacturer's guidelines.

[5] = target: T5, human LAG3 on HEK293F cells (human, UniProt P18627 23-525); test: flow cytometry, transfected HEK293F cells [Cont.]
T5 construct: whole, on cells
T5 sequence (looked up): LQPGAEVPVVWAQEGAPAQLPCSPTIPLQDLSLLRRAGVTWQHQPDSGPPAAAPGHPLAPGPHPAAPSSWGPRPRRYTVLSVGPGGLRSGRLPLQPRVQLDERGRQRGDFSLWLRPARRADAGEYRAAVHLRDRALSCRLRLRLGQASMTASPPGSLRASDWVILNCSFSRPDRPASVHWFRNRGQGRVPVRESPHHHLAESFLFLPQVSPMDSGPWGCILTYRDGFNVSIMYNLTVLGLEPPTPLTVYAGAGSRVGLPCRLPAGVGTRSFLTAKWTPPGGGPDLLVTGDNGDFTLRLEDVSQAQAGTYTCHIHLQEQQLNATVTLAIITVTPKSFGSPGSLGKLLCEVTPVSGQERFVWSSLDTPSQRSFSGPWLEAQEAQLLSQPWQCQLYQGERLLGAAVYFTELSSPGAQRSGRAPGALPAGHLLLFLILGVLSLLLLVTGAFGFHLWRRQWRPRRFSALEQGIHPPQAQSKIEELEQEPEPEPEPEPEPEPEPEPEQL
Experimental: as §1

[6] = target: T6, human PD1 on HEK293F cells (human, UniProt Q15116 25-288); test: flow cytometry, transfected HEK293F cells [Cont.]
T6 construct: whole, on cells
Experimental: as §1

[7] = target: T7, full-length human CTLA4 expressed on cells (human, UniProt P16410 36-223); test: flow cytometry, transfected HEK293F cells, 100 nM antibody [Cont.]
T7 construct: whole, on cells; also called HEK293F/hCTLA-4 cells; HEK293F/hCTLA4 cells
T7 sequence (looked up): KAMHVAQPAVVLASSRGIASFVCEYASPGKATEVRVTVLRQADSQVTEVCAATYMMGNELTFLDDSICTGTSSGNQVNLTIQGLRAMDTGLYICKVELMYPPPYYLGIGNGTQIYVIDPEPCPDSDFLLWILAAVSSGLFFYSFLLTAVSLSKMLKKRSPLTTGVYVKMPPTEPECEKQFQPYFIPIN
Experimental: as §1

T6 sequence (Q15116 25-288): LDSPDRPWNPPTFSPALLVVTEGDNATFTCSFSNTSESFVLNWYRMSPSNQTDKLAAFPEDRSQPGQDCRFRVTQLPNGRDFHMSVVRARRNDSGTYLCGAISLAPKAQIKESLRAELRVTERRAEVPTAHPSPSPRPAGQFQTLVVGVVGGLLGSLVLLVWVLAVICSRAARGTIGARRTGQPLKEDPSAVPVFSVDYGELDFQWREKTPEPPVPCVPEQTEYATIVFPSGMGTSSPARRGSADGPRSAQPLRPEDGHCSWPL

B1: TY21591 (antibody, V domains shown)
VH: EVQLVESGGGLVQPGGSLRLSCAASGFSLSTGGVAVSWIRQAPGKGLEWIGEIYHSGSTYYSPSLKSRVTISRDNSKNTLYLQLNSLRAEDTAVYYCARRIATATYFDYWGQGTLVTVSS
VL: DIQLTQSPSSLSASVGDRVTITCRASQTVFSRYLAWYQQKPGKAPKLLIYDASNRATGIPSRFSGSGSGTDFTLTISSLQPEDFATYYCQQSYYWPPWTFGQGTKVEIK
notes: human IgG1 (hIgG1) from Fab hit B15756
B1: no binding (tested: 100 nM) [1]; no binding (tested: 100 nM) [2]; no binding (tested: 100 nM) [3].

B2: TY21691 (antibody, V domains shown)
VH: EVQLVESGGGLVQPGGSLRLSCAASGFTFSDYAIHWVRQAPGKGLEWIGIISPSGGSTKYAQKFQGRVTISRDNSKNTLYLQLNSLRAEDTAVYYCARLGYGYFDVWGQGTLVTVSS
VL: DIQLTQSPSSLSASVGDRVTITCRASQSVDFYGISFLHWYQQKPGKAPKLLIYDASSLESGVPSRFSGSGSGTDFTLTISSLQPEDFATYYCVQALQLPLTFGQGTKVEIK
notes: human IgG1 (hIgG1) from Fab hit B15736
B2 gave a Kd [4] of 0.58 nM.

B3: TY21687 (antibody, V domains shown)
VH: EVQLVESGGGLVQPGGSLRLSCAASGFTFSGYAIHWVRQAPGKGLEWIGIISPSGGGTKYAQKFQGRVTISRDNSKNTLYLQLNSLRAEDTAVYYCARHPFAYWGQGTLVTVSS
VL: DIQLTQSPSSLSASVGDRVTITCRASQSVDFYGISFLDWYQQKPGKAPKLLIYDASNRATGIPSRFSGSGSGTDFTLTISSLQPEDFATYYCQQYVSSPPEYTFGQGTKVEIK
notes: human IgG1 (hIgG1) from Fab hit B15700
In the case of B3, the binding result [5] is reported as “no binding (tested: 100 nM)”, the binding result [6] is reported as “no binding (tested: 100 nM)” and the Kd [4] is reported as 0.78 nM. For the same binder, the “% of cells in upper right quadrant (Q2)” value [7] was 75.7%.

B4: TY21585 (antibody, V domains shown)
VH: EVQLVESGGGLVQPGGSLRLSCAASGFTFSDYAIHWVRQAPGKGLEWIGIISPSSGSTNYAQKFQGRVTISRDNSKNTLYLQLNSLRAEDTAVYYCARDIHSGSSGYYYGFDVWGQGTLVTVSS
VL: DIQLTQSPSSLSASVGDRVTITCRASESVDFFGISFLAWYQQKPGKAPKLLIYDASNRATGIPSRFSGSGSGTDFTLTISSLQPEDFATYYCQHYTSSPPVYTFGQGTKVEIK
notes: human IgG1 (hIgG1) from Fab hit B15709
For B4, the “% of cells in upper right quadrant (Q2)” value [7] was 36.3 and the “Mean” value [7] was 6190.
